Measured values: US20150065420A1 (EXTEND BIOSCIENCES, published 2015)

Target: GHS-R (ghrelin receptor) expressed on CHO-K1 cells
Assay: cell-based or functional assay

Sequence of GHS-R (ghrelin receptor) expressed on CHO-K1 cells (Q92847 whole entry): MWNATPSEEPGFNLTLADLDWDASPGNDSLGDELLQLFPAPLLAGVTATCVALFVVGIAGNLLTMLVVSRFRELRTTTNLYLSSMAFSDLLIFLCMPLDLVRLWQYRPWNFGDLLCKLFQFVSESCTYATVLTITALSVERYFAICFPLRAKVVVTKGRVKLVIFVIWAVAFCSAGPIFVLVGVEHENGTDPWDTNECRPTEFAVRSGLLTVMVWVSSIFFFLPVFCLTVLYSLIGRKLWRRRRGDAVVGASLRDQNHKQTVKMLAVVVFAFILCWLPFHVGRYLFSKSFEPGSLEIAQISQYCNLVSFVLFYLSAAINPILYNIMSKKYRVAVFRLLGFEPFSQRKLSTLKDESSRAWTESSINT

EC50 of intracellular calcium flux (FLIPR, % activation) in GHS-R-expressing CHO-K1 cells: 85 nM
B1: Vitamin D3-PEG-maleimide carrier-conjugated ghrelin from Example 3 (peptide)
peptide: GSSFLSPEHQKAQQRKESKKPPAKLQPRC
modifications: n-octanoyl on Ser 3; added C-terminal Cys conjugated through its thiol to the Vitamin D3-PEG(2 kDa)-maleimide carrier of Example 1
